Laboratory results from patent US20110008829.

Columns and labels:
[1] = molecular target: T1, HMGS with 12 SH3 peptide ligands recombined to the C-terminus, P54839
T1 sequence (P54839 whole entry, looked up): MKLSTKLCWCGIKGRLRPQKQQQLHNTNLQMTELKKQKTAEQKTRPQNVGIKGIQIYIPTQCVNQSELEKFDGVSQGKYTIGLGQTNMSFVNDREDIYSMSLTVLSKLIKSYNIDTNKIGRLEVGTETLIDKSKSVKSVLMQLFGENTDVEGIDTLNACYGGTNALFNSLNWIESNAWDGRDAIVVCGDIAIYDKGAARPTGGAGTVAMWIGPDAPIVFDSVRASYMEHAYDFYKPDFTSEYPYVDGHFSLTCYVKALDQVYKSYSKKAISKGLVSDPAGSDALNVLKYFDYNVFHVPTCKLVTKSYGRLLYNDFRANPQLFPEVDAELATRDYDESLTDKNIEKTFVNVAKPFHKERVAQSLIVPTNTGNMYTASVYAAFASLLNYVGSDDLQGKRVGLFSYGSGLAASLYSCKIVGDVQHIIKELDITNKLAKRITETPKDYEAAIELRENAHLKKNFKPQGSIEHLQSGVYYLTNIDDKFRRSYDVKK

[2] = molecular target: T2, HMGS with 6 SH3 peptide ligands recombined to the C-terminus, P54839
T2 sequence (P54839 whole entry, looked up): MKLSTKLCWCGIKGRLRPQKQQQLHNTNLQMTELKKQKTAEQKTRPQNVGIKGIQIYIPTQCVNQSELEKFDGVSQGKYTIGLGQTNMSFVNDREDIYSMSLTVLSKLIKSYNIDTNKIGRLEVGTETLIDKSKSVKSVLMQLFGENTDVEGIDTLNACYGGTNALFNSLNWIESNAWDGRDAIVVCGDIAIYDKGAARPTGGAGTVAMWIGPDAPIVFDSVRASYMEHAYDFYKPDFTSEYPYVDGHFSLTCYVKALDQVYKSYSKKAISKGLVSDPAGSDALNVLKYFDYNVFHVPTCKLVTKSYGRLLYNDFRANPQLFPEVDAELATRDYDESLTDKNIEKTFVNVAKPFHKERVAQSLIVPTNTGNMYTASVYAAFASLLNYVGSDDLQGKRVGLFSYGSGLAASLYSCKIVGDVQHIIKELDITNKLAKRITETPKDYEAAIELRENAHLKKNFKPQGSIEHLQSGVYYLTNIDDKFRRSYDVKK

B1: HMGR with an N-terminal SH3 domain (protein)
chain: AEYVRALFDFNGNDEEDLPFKKGDILRIRDKPEEQWWNAEDSEGKRGMIPVPYVEKYRVLTNKTVISGSKVKSLSSAQSSSSGPSSSSEEDDSRDIESLDKKIRPLEELEALLSSGNTKQLKNKEVAALVIHGKLPLYALEKKLGDTTRAVAVRRKALSILAEAPVLASDRLPYKNYDYDRVFGACCENVIGYMPLPVGVIGPLVIDGTSYHIPMATTEGCLVASAMRGCKAINAGGGATTVLTKDGMTRGPVVRFPTLKRSGACKIWLDSEEGQNAIKKAFNSTSRFARLQHIQTCLAGDLLFMRFRTTTGDAMGMNMISKGVEYSLKQMVEEYGWEDMEVVSVSGNYCTDKKPAAINWIEGRGKSVVAEATIPGDVVRKVLKSDVSALVELNIAKNLVGSAMAGSVGGFNAHAANLVTAVFLALGQDPAQNVESSNCITLMKEVDGDLRISVSMPSIEVGTIGGGTVLEPQGAMLDLLGVRGPHATAPGTNARQLARIVACAVLAGELSLCAALAAGHLVQSHMTHNRKPAEPTKPNNLDATDINRLKDGSVTCIKS
[1]
  mevalonate production in E. coli, improvement: reduced somewhat (to 7-fold) when the number of possible interactions was further increased
[2]
  mevalonate production in E. coli, improvement: mevalonate production reached a maximum ˜10-fold improvement with 6 possible interactions
